Laboratory results published in publication PMC12004702, “Characterization of a rhodopsin-phosphodiesterase from Choanoeca flexa to be combined with rhodopsin-cyclases for bidirectional optogenetic cGMP control” (The Journal of Biological Chemistry, 2025).

Substrate: [H][C@@]12COP(=O)(O)O[C@@]1([H])[C@@H](O)[C@H](n1cnc3c(=O)[nH]c(N)nc31)O2
Assay: HPLC initial-rate assay, Michaelis-Menten fit, membrane fraction
Assay type: biochemical, Choanoeca flexa
Conditions: 5 mM MgCl2, 20 mM Hepes, 100 mM NaCl, 5 mM DTT, 5% glycerol
[1] = light-adapted state (470 nm, 30 μW/mm^2)

B1: CfRhPDE1 (Choanoeca flexa) (protein)
chain: MSKAMTMREEAALELKRKGKVKNVAIATTSEVQKQGFFMMAVWIATVSILWLFSNPEASEAVFEKHGQLRVMYGATSVAFAFATALDVLAYVNAVSDEKRVLSGVLAYVDGAACLSYAAMASLPLYFILDSHNGNPIWLMRYAEWLITCPTLLYWCGLATRGERGAVADIATGDAMLLAGGALSSILPGWPSYFVFMGSVAAFVYVMTHMWGLFSKAMQPDFSPAPPLPRTALNLMRWEIVLSWTCFPMIEYSRRYFGLDYQTGEALNSIIDYAAKVGLAMIMVNCNLEQINAIKVEQMQSAMSGMVKVMRKTNARVELDGMDDDVKGWLLNEYAGDDGEDEVKVSSKSKRNQKSINPEEISASALFSWDFCSLDKSEEDLVGICIRVFRELKMIEVFDLDESKLRRFILGVRSRYNKNPFHNWKHAVMVLHTCYLFITQVAAEFCTDLEVLALLFAALCHDCDHNGVNNAFHINSRSDLALLYNDQSVLENHHCYSGFDVLYDKGNNFLDVLSEGDFKRFRSLVIDCILGTDMAHHASKLGKLEEINRLGGFSNLAENDEQRAFVMVTLLHTSDLYNPIKPFHITKKWANRLQREFNQQVEVESQMGLPSLPFMKGQGELALAKGEVGFITFVIRPWYVQLTNAFPKIDFLMDNIDTNLDMWKSIVESHE
notes: full-length, N-terminal Venus tag kept, no other change from WT; codon-optimized; membranes of ND7/23 cells; modelled as dimer
- Km (darkness (dark-adapted state)): 4.4 ± 0.6 µM
- kcat (darkness (dark-adapted state)): 2.0 ± 0.1 s⁻¹
- Km [1]: 1.9 ± 0.1 µM
- kcat [1]: 4.7 ± 0.1 s⁻¹
